Here are results for one substance from patent US20240382606A1.

This experiment deals with CD8 co-receptors on CD8+ T cells (OT-1 mouse splenocytes) (mouse) (UniProt P01731). The experiment can be described thus: flow cytometry, noncognate APNs on OT-1 CD8+ splenocytes, in vitro. On the technique in general: Flow cytometry measures light scatter and fluorescence of single cells or particles in a stream.
Chain of UniProt P01731 (P01731 28-247, chain 1 of 2): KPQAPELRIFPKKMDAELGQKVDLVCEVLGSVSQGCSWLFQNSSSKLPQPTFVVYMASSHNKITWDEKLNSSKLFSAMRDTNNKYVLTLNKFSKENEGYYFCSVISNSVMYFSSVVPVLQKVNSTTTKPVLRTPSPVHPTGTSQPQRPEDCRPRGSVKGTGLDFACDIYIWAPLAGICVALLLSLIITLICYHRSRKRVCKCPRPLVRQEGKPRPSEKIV
Chain of UniProt P01731 (P10300 22-213, chain 2 of 2, further chain): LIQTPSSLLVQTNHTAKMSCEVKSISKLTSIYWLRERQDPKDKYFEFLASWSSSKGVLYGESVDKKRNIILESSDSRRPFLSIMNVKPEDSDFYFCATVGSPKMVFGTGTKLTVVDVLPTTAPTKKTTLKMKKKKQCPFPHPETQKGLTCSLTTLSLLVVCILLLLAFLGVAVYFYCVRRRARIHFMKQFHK

Take “NS2/K^b antigen-presenting nanoparticle (APN): NS2 peptide RTFSFQLI on H2-K^b on an mRNA lipid nanoparticle (peptide-MHC)”: the percent cross-reactivity was found to be 10%.
